From patent US20240368269A1

Molecular target: DLL3 (target in the Fab-Zap internalization assay) (UniProt Q9NYJ7)
Assay: cell-based or functional assay

DLL3 (target in the Fab-Zap internalization assay), sequence (Q9NYJ7 27-618 limits assumed): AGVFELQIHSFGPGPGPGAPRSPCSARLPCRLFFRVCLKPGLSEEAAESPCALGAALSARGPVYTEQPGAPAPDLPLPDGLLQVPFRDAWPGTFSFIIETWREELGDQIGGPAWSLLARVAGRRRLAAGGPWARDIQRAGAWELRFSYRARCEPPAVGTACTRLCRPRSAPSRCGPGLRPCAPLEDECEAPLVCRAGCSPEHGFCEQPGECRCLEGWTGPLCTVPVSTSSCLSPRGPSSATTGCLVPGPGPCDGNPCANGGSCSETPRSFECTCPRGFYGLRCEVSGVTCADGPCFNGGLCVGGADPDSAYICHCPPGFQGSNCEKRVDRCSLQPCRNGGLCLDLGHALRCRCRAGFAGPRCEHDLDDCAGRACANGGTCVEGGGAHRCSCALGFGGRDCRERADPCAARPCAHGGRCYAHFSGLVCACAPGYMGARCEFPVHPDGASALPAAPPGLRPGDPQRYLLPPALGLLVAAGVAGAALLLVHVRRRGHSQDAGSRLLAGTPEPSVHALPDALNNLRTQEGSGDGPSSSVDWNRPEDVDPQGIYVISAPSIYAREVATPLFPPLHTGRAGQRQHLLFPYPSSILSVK

Rovalpituzumab Tesirine (SC16LD6.5) (antibody)
Percent Max Killing (Fab-Zap internalization assay, 10 ug/ml): 96%
